{"source": "paper PMC7570257", "molecular_target": "PRMT1 catalytic core construct", "test": "SEC", "data": [{"substance": "PRMT1 catalytic core construct (domain or fragment)", "values": [{"measurement": "stoichiometry N", "result": 4}]}]}
